The numbers were not newly measured in publication PMC5686428, which cites them from elsewhere.

This data set has as its target HSV-1 glycoprotein D (soluble gD) (Herpes simplex virus type 1) (UniProt Q69091). Description: not stated (cited). The conditions noted are these: SYBR Green assay: 1-200 nM protein, DApt (dissolved in PBS, heated 95 C 3 min, cooled on ice), 30 min, read at 520 nm; assay buffer, pH and temperature not ….

pKd: −log10 of the molar value.

Chain of UniProt Q69091 (Q69091 26-331): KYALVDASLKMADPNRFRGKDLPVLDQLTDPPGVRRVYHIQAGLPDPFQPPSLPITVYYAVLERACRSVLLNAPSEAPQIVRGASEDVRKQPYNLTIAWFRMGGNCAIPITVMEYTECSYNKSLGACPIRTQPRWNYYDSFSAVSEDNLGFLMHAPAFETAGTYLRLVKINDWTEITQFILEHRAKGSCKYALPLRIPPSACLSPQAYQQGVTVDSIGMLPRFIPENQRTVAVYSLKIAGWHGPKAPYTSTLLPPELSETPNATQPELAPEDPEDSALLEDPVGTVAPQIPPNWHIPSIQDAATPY

As for “GGGCACGAGAGAGGUCGUCCCCAGGGGAGAACUCGUGCUCCUGG [mini-1 RNA aptamer]”, the pKd was 8.40.
